From US20050278809A1

What was measured:
[1] = target: GAL4 DB-HDA19 fusion (pDBLeu-HDA19), expressed in MaV203 yeast (yeast; Arabidopsis thaliana) (UniProt P04386); assay: cell-based or functional assay
[2] = target: tobacco ortholog of the transcription repressor HDA19 (tobacco); assay: cell-based or functional assay
[3] = scale: % further reduction relative to the other mutants
[4] = scale: % reduction relative to full-length bnKCP1

β-galactosidase activity (lacZ reporter, yeast two-hybrid, CPRG) (% reduction relative to wild type BnSCL1) [1] | Substance | other results
> 50 | GAL4 AD-BnSCL1^218-438 fusion (pPC86-BnSCL1^218-438), expressed in MaV203 yeast | β-galactosidase activity (lacZ reporter, yeast two-hybrid, CPRG) [1, 3]: > 50
– | GAL4 AD-bnKCP1^1-80 fusion (pPC86-bnKCP1^1-80), expressed in MaV203 yeast (from UniProt Q84U09 1-80) | β-galactosidase activity (lacZ reporter, yeast two-hybrid, CPRG) [1, 4]: > 50
> 50 | GAL4 AD-BnSCL1^146-358 fusion (pPC86-BnSCL1^146-358), expressed in MaV203 yeast | –
– | GAL4BD-BnSCL1 fusion protein (effector plasmid GAL4-BnSCL1), expressed transiently in tobacco leaves (from UniProt P04386 1-147) | GUS gene expression (transient assay in bombarded tobacco leaves, fluorometric) [2]: 50 % decrease
– | GAL4 AD-bnKCP1^1-160 fusion (pPC86-bnKCP1^1-160), expressed in MaV203 yeast (from UniProt Q84U09 1-160) | β-galactosidase activity (lacZ reporter, yeast two-hybrid, CPRG) [1, 4]: > 50
> 50 | GAL4 AD-BnSCL1^1-145 fusion (pPC86-BnSCL1^1-145), expressed in MaV203 yeast | β-galactosidase activity (lacZ reporter, yeast two-hybrid, CPRG) [1, 3]: > 50
> 50 | GAL4 AD-BnSCL1^1-358 fusion (pPC86-BnSCL1^1-358), expressed in MaV203 yeast | –
> 50 | GAL4 AD-BnSCL1^1-217 fusion (pPC86-BnSCL1^1-217), expressed in MaV203 yeast | –
> 50 | GAL4 AD-BnSCL1^1-261 fusion (pPC86-BnSCL1^1-261), expressed in MaV203 yeast | –
